PMC3175489

Legend:
SOX2 [1] = target: T1, SOX2 (human, UniProt P48431 1-317); assay: competition
SOX2 [2] = target: T1, SOX2; assay: Ni-NTA filter microplate fluorescent DNA binding
NANOG = NANOG (human, UniProt Q9H9S0 1-305); assay: Ni-NTA filter microplate fluorescent DNA binding
Chain of NANOG (Q9H9S0 whole entry): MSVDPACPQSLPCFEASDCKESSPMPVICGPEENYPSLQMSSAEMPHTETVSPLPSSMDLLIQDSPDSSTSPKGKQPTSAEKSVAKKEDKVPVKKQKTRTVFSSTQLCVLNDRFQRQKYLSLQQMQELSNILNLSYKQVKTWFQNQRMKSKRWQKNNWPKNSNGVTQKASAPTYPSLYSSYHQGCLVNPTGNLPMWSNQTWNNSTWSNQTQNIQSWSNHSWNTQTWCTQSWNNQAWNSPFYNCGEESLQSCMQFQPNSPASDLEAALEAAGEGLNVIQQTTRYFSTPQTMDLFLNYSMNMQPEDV

T1 sequence (P48431 whole entry): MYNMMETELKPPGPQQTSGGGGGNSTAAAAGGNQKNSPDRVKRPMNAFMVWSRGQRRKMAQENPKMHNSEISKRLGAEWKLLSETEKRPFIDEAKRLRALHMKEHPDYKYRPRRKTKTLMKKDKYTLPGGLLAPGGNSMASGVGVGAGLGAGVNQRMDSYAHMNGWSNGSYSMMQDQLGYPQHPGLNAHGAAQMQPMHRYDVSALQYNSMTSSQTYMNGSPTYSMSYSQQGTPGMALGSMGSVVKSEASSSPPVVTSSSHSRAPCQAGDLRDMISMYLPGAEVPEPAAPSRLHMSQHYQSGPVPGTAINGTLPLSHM

B1: nonsense probe (dsDNA)
DNA 1: GCCCGATTACTCTGTCCT
DNA 2: AGGACAGAGTAATCGGGC
- binding result (SOX2 [1]): no binding

B2: SOX2 cognate probe (CR4 POU5F1) (dsDNA)
DNA 1: GCAGAGGACAAAGGTGCCGTG
DNA 2: CACGGCACCTTTGTCCTCTGC
- Kd (SOX2 [2]): 54.2 ± 9 nM

B3: NANOG cognate probe (Tcf3 enhancer) (dsDNA)
DNA 1: ACCTGTTAATGGGAGCGC
DNA 2: GCGCTCCCATTAACAGGT
- Kd (NANOG): 44 ± 6 nM
